Among the data in patent US20060040881 are activity values, retold here.

The data set relates to Coagulation factor IX/IXa (Macaca fascicularis). As to the kind of experiment: inhibition. The note with it: guggaCUaUaCCgCgUaaUgCuGcCUccacT; lower case 2'-OMe, upper case C/U 2'-F, upper case A/G 2'-OH, 3' idT; concentration inhibiting about 90% of plasma FIX activity (APTT 1.6-fold); >95% at 10-12 ug/mL; cynomolgus plasma; text cites Apt39 as SEQ ID NO:88.

Regarding GUGGACUAUACCGCGUAAUGCUGCCUCCAC [Apt39], the activity worked out at 6 µg/mL.
